Test results as given in US20200268901A1 (Bristol-Myers Squibb, published 2020).
Where a chain is given by its changes, count along the chain named. In names and notes the source's numbering stands. Several values for one entry are separate records, joined by “and”; a condition that tells them apart may be missing. Equal values may be shown once. Read-outs that look alike come from different tables or passages of the source.

How the values were obtained:
[1] = target: T1, human CD73 on Calu6 cells (human, UniProt P21589 27-549); assay: cell-based or functional assay
T1 sequence (looked up): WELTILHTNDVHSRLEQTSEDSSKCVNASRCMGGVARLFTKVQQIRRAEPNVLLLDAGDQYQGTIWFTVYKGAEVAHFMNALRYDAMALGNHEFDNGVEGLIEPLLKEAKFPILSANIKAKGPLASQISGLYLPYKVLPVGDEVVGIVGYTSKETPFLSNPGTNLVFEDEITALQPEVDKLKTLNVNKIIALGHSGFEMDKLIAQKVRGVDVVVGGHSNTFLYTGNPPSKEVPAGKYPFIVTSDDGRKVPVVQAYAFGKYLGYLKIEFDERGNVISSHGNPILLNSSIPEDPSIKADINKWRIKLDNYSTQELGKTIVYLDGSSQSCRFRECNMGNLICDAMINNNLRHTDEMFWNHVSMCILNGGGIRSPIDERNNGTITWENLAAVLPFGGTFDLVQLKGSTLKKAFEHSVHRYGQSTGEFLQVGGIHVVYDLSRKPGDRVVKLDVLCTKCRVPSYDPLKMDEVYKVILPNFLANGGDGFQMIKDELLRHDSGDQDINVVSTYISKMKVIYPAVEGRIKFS

[2] = target: T1, human CD73 on Calu6 cells; assay: cell-based or functional assay; remark: listed apart in the source
[3] = target: T2, N-hCD73-his (N-terminal domain of human CD73, residues 26-336) (human, UniProt P21589 26-336); assay: SPR (Biacore T100), mAb captured on protein A, N-hCD73-his analyte
T2 construct: not shown: his tag
T2 sequence (looked up): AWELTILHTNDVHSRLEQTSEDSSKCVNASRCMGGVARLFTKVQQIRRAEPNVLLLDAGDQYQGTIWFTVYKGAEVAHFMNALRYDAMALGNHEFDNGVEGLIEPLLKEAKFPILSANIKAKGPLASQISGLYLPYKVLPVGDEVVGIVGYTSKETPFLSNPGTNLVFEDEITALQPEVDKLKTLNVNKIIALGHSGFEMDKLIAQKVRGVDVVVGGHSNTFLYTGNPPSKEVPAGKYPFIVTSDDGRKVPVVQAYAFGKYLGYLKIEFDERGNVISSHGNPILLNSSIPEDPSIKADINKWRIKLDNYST
Experimental: The affinity of the antibodies for human CD73 was measured to determine whether the change of the constant region affects them. The affinities were determined by Surface Plasmon Resonance (SPR) as follows. […] For these experiments, protein A (Pierce) was immobilized to a density of 3000-4000 RU on flow cells 1-4 of a CM5 sensor chip (GE Healthcare) using standard ethyl(dimethylaminopropyl) carbodiimide (EDC)/N-hydroxysuccinimide (NHS) chemistry, with ethanolamine blocking, in a running buffer of 0.01 M HEPES pH 7.4, 0.15 M NaCl, 3 mM EDTA, 0.005% v/v tween 20. […] The running buffer for the kinetic experiments was 10 mM sodium phosphate, 130 mM sodium chloride, 0.05% tween 20, pH 7.1. The surfaces were regenerated after each cycle using two 30 s pulses of 10 mM glycine pH 1.5 at a flow rate of 30 μl/min. Sensogram data was double-referenced and then fitted to a 1:1 Langmuir model using Biacore T100 evaluation software v2.0.4, to determine the association rate constant (ka), the dissociation rate constant (kd), and the equilibrium dissociation constant (KD).

[4] = target: T1, human CD73 on Calu6 cells; assay: cell-based or functional assay; remark: listed apart in the source
[5] = target: T1, human CD73 on Calu6 cells; assay: cell-based or functional assay; remark: listed apart in the source
[6] = target: T3, human GITR on cells (activated human T cells; 3A9-hGITR cells) (human, UniProt Q9Y5U5 26-241); assay: cell-based or functional assay
T3 sequence (looked up): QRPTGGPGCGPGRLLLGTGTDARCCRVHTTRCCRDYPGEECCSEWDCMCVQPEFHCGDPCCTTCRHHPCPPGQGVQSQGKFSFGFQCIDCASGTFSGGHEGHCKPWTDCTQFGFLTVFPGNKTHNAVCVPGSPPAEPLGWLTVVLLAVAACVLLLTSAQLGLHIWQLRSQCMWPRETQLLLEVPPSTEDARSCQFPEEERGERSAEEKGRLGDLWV

B1: CD73.10-IgG2-C219S (antibody)
heavy: QVQLVESGGGVVQPGRSLRLSCAASGFTFSNYGMHWVRQAPGKGLEWVAVIWYDESNKYYPDSVKGRFTISRDNSKNTLYLQMNSLRAEDTAVYYCARGGSSWYPDSFDIWGQGTMVTVSSASTKGPSVFPLAPCSRSTSESTAALGCLVKDYFPEPVTVSWNSGALTSGVHTFPAVLQSSGLYSLSSVVTVPSSNFGTQTYTCNVDHKPSNTKVDKTVERKSCVECPPCPAPPVAGPSVFLFPPKPKDTLMISRTPEVTCVVVDVSHEDPEVQFNWYVDGVEVHNAKTKPREEQFNSTFRVVSVLTVVHQDWLNGKEYKCKVSNKGLPAPIEKTISKTKGQPREPQVYTLPPSREEMTKNQVSLTCLVKGFYPSDIAVEWESNGQPENNYKTTPPMLDSDGSFFLYSKLTVDKSRWQQGNVFSCSVMHEALHNHYTQKSLSLSPG
light: not shown
notes: anti-CD73; also called CD73.10-IgG2CS
- EC50 (nM) of CD73 internalization, Calu6 cells, 2 h [1]: 0.67 nM
- Ymax of CD73 internalization (% of 100 nM 11F11) [1]: 99%
- % internalization, Calu6 cells [2]: 91%
- % internalization, H228 cells [2]: 93%
- % internalization, H2030 cells [2]: 85%
- % internalization, HCC15 cells [2]: 91%
- T1/2 min of internalization, Calu6 cells [2]: 3 min
- T1/2 min of internalization, H228 cells [2]: 9.7 min
- T1/2 min of internalization, H2030 cells [2]: 3.3 min
- T1/2 min of internalization, HCC15 cells [2]: 2.6 min
- Kd [3]: 6.2 nM and 8.3 nM
- koff [3]: 0.0014 s⁻¹ and 0.0018 s⁻¹
- kon [3]: 220000 M⁻¹ s⁻¹

B2: CD73.10-IgG2-C219S-IgG1.1 (antibody)
heavy: B1 heavy with Q274K, F296Y, F300Y, V309L, G327A, A330S, P331S, T339A
light: not shown
notes: anti-CD73; also called CD73.10-IgG2CS-IgG1.1f
- EC50 (nM) of CD73 internalization, Calu6 cells, 2 h [1]: 0.87 nM
- Ymax of CD73 internalization (% of 100 nM 11F11) [1]: 99%
- % internalization, Calu6 cells [2]: 91%
- % internalization, H228 cells [2]: 92%
- % internalization, H2030 cells [2]: 87%
- % internalization, HCC15 cells [2]: 91%
- T1/2 min of internalization, Calu6 cells [2]: 3.1 min
- T1/2 min of internalization, H228 cells [2]: 9.4 min
- T1/2 min of internalization, H2030 cells [2]: 4.3 min
- T1/2 min of internalization, HCC15 cells [2]: 3 min
- Kd [3]: 5.7 nM and 6.8 nM
- koff [3]: 0.0014 s⁻¹ and 0.0016 s⁻¹
- kon [3]: 240000 M⁻¹ s⁻¹ and 230000 M⁻¹ s⁻¹

B3: CD73.4-IgG2.3G1.1f-KH (antibody)
heavy: QVQLVESGGGVVQPGRSLRLSCAASGFTFSNYGMHWVRQAPGKGLEWVAVILYDGSNKYYPDSVKGRFTISRDNSKNTLYLQMNSLRAEDTAVYYCARGGSSWYPDSFDIWGQGTMVTVSSASTKGPSVFPLAPCSRSTSESTAALGCLVKDYFPEPVTVSWNSGALTSGVHTFPAVLQSSGLYSLSSVVTVPSSNFGTQTYTCNVDHKPSNTKVDKTVERKSCVECPPCPAPPVAGPSVFLFPPKPKDTLMISRTPEVTCVVVDVSHEDPEVKFNWYVDGVEVHNAKTKPREEQYNSTYRVVSVLTVLHQDWLNGKEYKCKVSNKALPSSIEKTISKAKGQPREPQVYTLPPSREEMTKNQVSLTCLVKGFYPSDIAVEWESNGQPENNYKTTPPVLDSDGSFFLYSKLTVDKSRWQQGNVFSCSVMHEALHNHYTQKSLSLSPGK
light: not shown
notes: also called CD73.4-IgG2-C219S-IgG1.1f; CD73.4-IgG2CS-IgG1.1f
- T1/2 (hr) of CD73 internalization, Calu6 cells [4]: 0.566 h
- T1/2 (hr) of CD73 internalization, NCI-H292 cells [4]: 0.263 h
- T1/2 (hr) of CD73 internalization, NCI-H1437 cells [4]: 0.316 h
- T1/2 (hr) of CD73 internalization, NCI-H1437 cells (no wash) [4]: 0.342 h
- T1/2 (hr) of CD73 internalization, SNU-C1 cells [4]: 0.495 h
- T1/2 (hr) of CD73 internalization, SNU-C1 cells (no wash) [4]: 1.02 h
- Ymax (%) of CD73 internalization, Calu6 cells [4]: 76.8%
- Ymax (%) of CD73 internalization, NCI-H292 cells [4]: 77.6%
- T1/2 (hr) of CD73 internalization, Calu6 cells [5]: 0.351 h
- T1/2 (hr) of CD73 internalization, NCI-H292 cells [5]: 0.276 h
- Ymax (%) of CD73 internalization, Calu6 cells [5]: 81%
- Ymax (%) of CD73 internalization, NCI-H292 cells [5]: 90.3%

B4: CD73.4-IgG2.5G1.1f-KH (antibody)
heavy: B3 heavy with C135S, S223C
light: not shown
- T1/2 (hr) of CD73 internalization, Calu6 cells [5]: 0.353 h
- T1/2 (hr) of CD73 internalization, NCI-H292 cells [5]: 0.299 h
- Ymax (%) of CD73 internalization, Calu6 cells [5]: 79.6%
- Ymax (%) of CD73 internalization, NCI-H292 cells [5]: 90.9%

B5: CD73.4-IgG2.5 (antibody)
heavy: QVQLVESGGGVVQPGRSLRLSCAASGFTFSNYGMHWVRQAPGKGLEWVAVILYDGSNKYYPDSVKGRFTISRDNSKNTLYLQMNSLRAEDTAVYYCARGGSSWYPDSFDIWGQGTMVTVSSASTKGPSVFPLAPSSRSTSESTAALGCLVKDYFPEPVTVSWNSGALTSGVHTFPAVLQSSGLYSLSSVVTVPSSNFGTQTYTCNVDHKPSNTKVDKTVERKCCVECPPCPAPPVAGPSVFLFPPKPKDTLMISRTPEVTCVVVDVSHEDPEVQFNWYVDGVEVHNAKTKPREEQFNSTFRVVSVLTVVHQDWLNGKEYKCKVSNKGLPAPIEKTISKTKGQPREPQVYTLPPSREEMTKNQVSLTCLVKGFYPSDIAVEWESNGQPENNYKTTPPMLDSDGSFFLYSKLTVDKSRWQQGNVFSCSVMHEALHNHYTQKSLSLSPGK
light: not shown
- T1/2 (hr) of CD73 internalization, Calu6 cells [5]: 0.348 h
- T1/2 (hr) of CD73 internalization, NCI-H292 cells [5]: 0.306 h
- Ymax (%) of CD73 internalization, Calu6 cells [5]: 79%
- Ymax (%) of CD73 internalization, NCI-H292 cells [5]: 89.6%

B6: 11F11 (antibody, human IgG2, kappa, V domains shown)
VH: QVQLVESGGGVVQPGRSLRLSCATSGFTFSNYGMHWVRQAPGKGLEWVAVILYDGSNKYYPDSVKGRFTISRDNSKNTLYLQMNSLRAEDTAVYYCARGGSSWYPDSFDIWGQGTMVTVSS
VL: DIQMTQSPSSLSASVGDRVTITCRASQGISSWLAWYQQKPEKAPKSLIYAASSLQSGVPSRFSGSGSGTDFTLTISSLQPEDFATYYCQQYNSYPLTFGGGTKVEIKR
notes: anti-CD73, IgG2; also called 11F11(IgG2)
- EC50 (nM) of CD73 internalization, Calu6 cells, 2 h [1]: 0.58 nM
- Ymax of CD73 internalization (% of 100 nM 11F11) [1]: 98%
- Kd [3]: 1.6 nM and 0.56 nM
- koff [3]: 0.00042 s⁻¹ and 0.00016 s⁻¹
- kon [3]: 260000 M⁻¹ s⁻¹ and 290000 M⁻¹ s⁻¹

B7: CD73.4-IgG2.5-plusTHT (antibody)
heavy: QVQLVESGGGVVQPGRSLRLSCAASGFTFSNYGMHWVRQAPGKGLEWVAVILYDGSNKYYPDSVKGRFTISRDNSKNTLYLQMNSLRAEDTAVYYCARGGSSWYPDSFDIWGQGTMVTVSSASTKGPSVFPLAPSSRSTSESTAALGCLVKDYFPEPVTVSWNSGALTSGVHTFPAVLQSSGLYSLSSVVTVPSSNFGTQTYTCNVDHKPSNTKVDKTVERKCCVETHTCPPCPAPPVAGPSVFLFPPKPKDTLMISRTPEVTCVVVDVSHEDPEVQFNWYVDGVEVHNAKTKPREEQFNSTFRVVSVLTVVHQDWLNGKEYKCKVSNKGLPAPIEKTISKTKGQPREPQVYTLPPSREEMTKNQVSLTCLVKGFYPSDIAVEWESNGQPENNYKTTPPMLDSDGSFFLYSKLTVDKSRWQQGNVFSCSVMHEALHNHYTQKSLSLSPGK
light: not shown
- T1/2 (hr) of CD73 internalization, Calu6 cells [5]: 0.287 h
- T1/2 (hr) of CD73 internalization, NCI-H292 cells [5]: 0.257 h
- Ymax (%) of CD73 internalization, Calu6 cells [5]: 80.2%
- Ymax (%) of CD73 internalization, NCI-H292 cells [5]: 89.6%

B8: anti-GITR-IgG2 (antibody)
heavy: QVQLVESGGGVVQPGRSLRLSCAASGFTFSSYGMHWVRQAPGKGLEWVAVIWYEGSNKYYADSVKGRFTISRDNSKNTLYLQMNSLRAEDTAVYYCARGGSMVRGDYYYGMDVWGQGTTVTVSSASTKGPSVFPLAPCSRSTSESTAALGCLVKDYFPEPVTVSWNSGALTSGVHTFPAVLQSSGLYSLSSVVTVPSSNFGTQTYTCNVDHKPSNTKVDKTVERKCCVECPPCPAPPVAGPSVFLFPPKPKDTLMISRTPEVTCVVVDVSHEDPEVQFNWYVDGVEVHNAKTKPREEQFNSTFRVVSVLTVVHQDWLNGKEYKCKVSNKGLPAPIEKTISKTKGQPREPQVYTLPPSREEMTKNQVSLTCLVKGFYPSDIAVEWESNGQPENNYKTTPPMLDSDGSFFLYSKLTVDKSRWQQGNVFSCSVMHEALHNHYTQKSLSLSPGK
light: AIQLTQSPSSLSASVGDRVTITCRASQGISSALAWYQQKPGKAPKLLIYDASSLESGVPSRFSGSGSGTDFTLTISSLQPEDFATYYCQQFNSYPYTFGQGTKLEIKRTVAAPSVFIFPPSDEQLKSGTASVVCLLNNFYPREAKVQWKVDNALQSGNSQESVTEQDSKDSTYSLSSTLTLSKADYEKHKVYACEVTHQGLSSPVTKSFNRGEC
- EC50 (nM), phospho-p65 NFkB signaling, CD4+ T cells [6]: 12.8 nM
- EC50 (nM), phospho-p65 NFkB signaling, CD8+ T cells [6]: 9 nM
- Emax (%), phospho-p65 NFkB signaling, CD4+ T cells [6]: 69%
- Emax (%), phospho-p65 NFkB signaling, CD8+ T cells [6]: 85%
